From doi:10.1101/351726 (bioRxiv, 2018)

Assays:
[1] = molecular target: the molecule itself; test: single-molecule fluorescence brightness analysis
[2] = molecular target: the molecule itself; test: photon counting histogram

| Protein | stoichiometry N [1] | stoichiometry N [2] |
| --- | --- | --- |
| MyD88 death domain (1-117 a.a) fused to GFP at the N-terminus (domain or fragment, human, UniProt Q99836 1-117, looked up) MAAGGPGAGSAAPVSSTSSLPLAALNMRVRRRLSLFLNVRTQVAADWTALAEEMDFEYLEIRQLETQADPTGRLLDAWQGRPGASVGRLLELLTKLGRDDVLLELGPSIEEDCQKYI | 8 to 10 GFP molecules | 8 |
| MyD88 TIR domain (159-296 a.a) fused to GFP at the N-terminus (domain or fragment, human, UniProt Q99836 159-296, looked up) ERFDAFICYCPSDIQFVQEMIRQLEQTNYRLKLCVSDRDVLPGTCVWSIASELIEKRCRRMVVVVSDDYLQSKECDFQTKFALSLSPGAHQKRLIPIKYKAMKKEFPSILRFITVCDYTNPCTKSWFWTRLAKALSLP | ~3 GFP fluorophores | 3 |
